Experimental data taken from patent publication US20020064828A1.

target: full-length human presenilin 2 (PS2) expressed in HeLa cells (human) (UniProt P49810); experiment: cell-based or functional assay

Row | Substance | cell death (floating HeLa cells), fold, on coexpression with PS2 [fold]
1 | calmyrin-EF-C mutant (E172Q) (from UniProt Q99828 2-191) | 1.05
2 | calmyrin-EF-N mutant (D127N) (from UniProt Q99828 2-191) | 1
3 | calmyrin-MYR mutant (G2A, myristoylation-deficient calmyrin) (from UniProt Q99828 3-191) | < 2.09
